The target in assay [1] is calcitonin receptor. Nature of the assay: cell-based or functional assay.
Assay [2] deals with calcitonin receptor. Nature of the assay: calcitonin receptor binding assay.
Assay [3] addresses amylin receptor (rat). Put plainly: 125I-amylin displacement, rat nucleus accumbens membranes.
Assay [4] addresses GLP-1/GIP/CT (receptors of the 'GLP-1/GIP/CT cyclase' assay). Nature of the assay: cell-based or functional assay.
The target of assay [5] is calcitonin receptor. Put plainly: CT receptor binding assay.
In assay [6] the target is T1, CGRP receptor (Homo sapiens (Human)), Q16602.
T1 chain 1: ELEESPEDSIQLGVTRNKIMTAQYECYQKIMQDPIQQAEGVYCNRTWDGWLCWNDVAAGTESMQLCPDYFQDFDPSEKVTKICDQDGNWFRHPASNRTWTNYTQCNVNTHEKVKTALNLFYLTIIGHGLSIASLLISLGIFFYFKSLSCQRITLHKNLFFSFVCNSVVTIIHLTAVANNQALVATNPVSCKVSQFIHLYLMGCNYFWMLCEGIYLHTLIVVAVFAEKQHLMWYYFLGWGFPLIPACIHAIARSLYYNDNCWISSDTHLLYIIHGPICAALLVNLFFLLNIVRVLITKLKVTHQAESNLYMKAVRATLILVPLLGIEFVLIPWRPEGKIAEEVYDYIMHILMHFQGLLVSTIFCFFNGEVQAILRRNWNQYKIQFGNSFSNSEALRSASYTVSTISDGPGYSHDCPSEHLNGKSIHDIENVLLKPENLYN
T1 chain 2: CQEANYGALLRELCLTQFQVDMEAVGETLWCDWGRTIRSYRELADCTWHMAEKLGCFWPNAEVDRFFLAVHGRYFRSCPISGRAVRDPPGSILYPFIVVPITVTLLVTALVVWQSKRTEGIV
Put plainly: CGRP receptor binding assay.

Assay [7] concerns the target amylin receptor (rat). Put plainly: amylin receptor binding assay.

calcitonin receptor, sequence (P30988 whole entry): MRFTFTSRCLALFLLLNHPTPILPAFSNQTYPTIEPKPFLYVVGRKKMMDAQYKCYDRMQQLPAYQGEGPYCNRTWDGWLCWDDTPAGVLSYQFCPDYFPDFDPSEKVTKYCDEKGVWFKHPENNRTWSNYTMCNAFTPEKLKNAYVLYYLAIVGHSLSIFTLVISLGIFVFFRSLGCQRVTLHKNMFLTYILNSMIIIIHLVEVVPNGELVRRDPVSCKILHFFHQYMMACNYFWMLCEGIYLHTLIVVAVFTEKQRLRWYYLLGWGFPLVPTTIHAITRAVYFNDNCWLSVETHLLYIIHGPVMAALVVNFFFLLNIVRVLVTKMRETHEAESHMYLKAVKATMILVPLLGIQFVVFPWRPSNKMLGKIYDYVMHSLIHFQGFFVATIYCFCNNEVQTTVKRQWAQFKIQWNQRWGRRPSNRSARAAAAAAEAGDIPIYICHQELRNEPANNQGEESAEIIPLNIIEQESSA

B1: [#Suc-(bAla)-PYY-(3-36), amide] [#NH-Des-Lys1-Rat Amylin, amide] (peptide)
chain 1: not shown
chain 2: CNTATCATQRLANFLVRSSNNLGPVLPPTNVGSNTY
modifications: not checked
Turning to B1, the CT cyclase with calcitonin receptor [1] worked out at 645. In the assay with calcitonin receptor [2], the Receptor Binding came to 46.

As for KCNTATCATQRLANFLVRSSNNLGPVLPPTNVGSNTY (modifications not checked) [Rat amylin], the Receptor Binding with amylin receptor (rat) [3] is 0.05; with calcitonin receptor [2], 3. The CT cyclase with calcitonin receptor [1] was found to be 326. Moreover, in assay [4], the GLP-1/GIP/CT cyclase turned out to be 5.

Consider DFMGWMDFGKRKCNTATCATQRLANELVRLQTYPRTNVGSNTY (modifications not checked) [CCK/Amylin-sCT hybrid DF(P-CH2SO3)… …], for which the IC50 (in general, the concentration that inhibits the measured activity by half) in the assay with calcitonin receptor [5] is 44 pM; in assay [6] it was 4400 pM; with amylin receptor (rat) [7] it was 83 pM.

As to DFMGWMDFGKRKCNTATCATQRLANELVRLQTYPRTNVGSNTY (modifications not checked) [27(p-CH2SO3)-PheCCK8(26-33),G,K,R,15Glu,hAmy(1-17),18Arg,sCT(18-26),hAmy(32-37)], the Receptor Binding with calcitonin receptor [2] was determined as 0.04.

The values above are taken from EP2330125A2.
